T1: human [1-305]-mouse chimeric EL (human; mouse, UniProt Q9WVG5 306-500)
T1 sequence: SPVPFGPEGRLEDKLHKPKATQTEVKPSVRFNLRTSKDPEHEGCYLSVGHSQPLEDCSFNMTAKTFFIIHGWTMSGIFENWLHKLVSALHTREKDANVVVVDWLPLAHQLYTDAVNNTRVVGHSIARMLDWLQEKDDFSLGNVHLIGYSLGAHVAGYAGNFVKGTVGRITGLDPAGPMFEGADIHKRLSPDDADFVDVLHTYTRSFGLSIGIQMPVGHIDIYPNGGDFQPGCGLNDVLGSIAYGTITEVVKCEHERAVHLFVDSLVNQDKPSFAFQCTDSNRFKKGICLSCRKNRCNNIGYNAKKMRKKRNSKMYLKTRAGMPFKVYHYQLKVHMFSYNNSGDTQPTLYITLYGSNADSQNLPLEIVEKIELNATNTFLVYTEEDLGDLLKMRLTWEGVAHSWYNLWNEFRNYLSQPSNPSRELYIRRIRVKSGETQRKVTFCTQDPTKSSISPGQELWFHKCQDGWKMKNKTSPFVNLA


Assays:
[1] = target: T1, human [1-305]-mouse chimeric EL; experiment: cell-based or functional assay
[2] = target: T1, human [1-305]-mouse chimeric EL; experiment: Biacore; EL captured by anti-C2-tag Ab; bivalent fit
Description: The binding affinities of anti-EL antibodies were measured using Biacore. […] Then, anti-EL humanized antibodies were added and the binding affinities were calculated by bivalent fitting of BIAevaluation software.

Neutralizing activity IC50 [1]	Kd [2]	koff [2]	kon [2]	Binder
2.7 nM	–	–	–	h53A11-S2 (antibody, V domains shown) VH: QVQLVQSGAEVKKPGASVKVSCKASGYTFTDYTMHWVRQAPGQRLEWMGGINPYYGGTTYNEKFKDRVTITRDTSASTAYMELSSLRSEDTAVYYCAKGDYYGGSYNYWGQGTTVTVSS VL: EIVMTQSLATLSVSPGERATLSCRASQDISNSLHWYQQKPGQAPRLLIYYASQSISGIPARFSGSGSGTEFTLTISSLQSEDFAVYYCQQSNSWPYTFGQGTKLEIK
1.8 nM	–	–	–	h53A11-S3 (antibody, V domains shown) VH: QVQLVQSGAEVKKPGASVKVSCKASGYTFTDYTMHWVRQAPGQRLEWMGGINPYYGGTTYNEKFKDRVTITRDTSASTAYMELSSLRSEDTAVYYCAKGDYYGGSYNYWGQGTTVTVSS VL: EIVMTQSPATLSVSPGERATLSCRASQDISNSLHWYQQKPGQAPRLLIKYASQSISGIPARFSGSGSGTEFTLTISSLQSEDFAVYYCQQSNSWPYTFGQGTKLEIK
2 nM	–	–	–	h23H8-S3 (antibody, V domains shown) VH: QVQLVQSGAEVKKPGASVKVSCKASGYTFTDNTIHWVRQAPGQGLEWMGHINPYYGGTNNNEKFKDRVTMTRDTSISTAYMELSRLRSDDTAVYYCARKGIYYSSPFDYWGQGTTVTVSS VL: DIQMTQSPSSLSASVGDRVTITCRASQDINNYLNWYQQKPGKAPKLLISYTSKLHSGVPSRFSGSGSGTDFTLTISSLQPEDFATYYCQQGNTLPFTFGQGTKLEIK
1.2 nM	4.2 nM	0.00051 s⁻¹	120000 M⁻¹ s⁻¹	h55A1-S3 (antibody, V domains shown, humanized) VH: QVQLVQSGSELKKPGASVKVSCKASGYTFTNYGLNWVRQAPGQGLEWMGWINTYSGVPTYAGDFKGRFVFSLDTSVSTAYLQISSLKAEDTAVYYCARRGYYGRRFFDVWGKGTTVTVSS VL: DIVLTQSPASLAVSPGQRATITCKASQSVDYDVDSYMHWYQQKPGQPPKLLIYAASNLASGVPARFSGSGSGTDFTLTINPVEANDTANYYCQNTIEDPPTFGGGTKVEIK
1.3 nM	12 nM	0.00033 s⁻¹	27000 M⁻¹ s⁻¹	h55A1-S5 (antibody, V domains shown, humanized) VH: QVQLVQSGSELKKPGASVKVSCKASGYTFTNYAMNWVRQAPGQGLEWMGWINTYSGVGTYAGDFKGRFVFSLDTSVSTAYLQISSLKAEDTAVYYCARRGFYGRRFFDVWGKGTTVTVSS VL: DIVLTQSPASLAVSPGQRATITCKASQSVDYDVDSYMHWYQQKPGQPPKLLIYAASNLASGVPARFSGSGSGTDFTLTINPVEANDTANYYCQNTIEDPPTFGGGTKVEIK
1.1 nM	11 nM	0.00037 s⁻¹	35000 M⁻¹ s⁻¹	h55A1-S2 (antibody, V domains shown, humanized) VH: QVQLVQSGSELKKPGASVKVSCKASGYTFTNYGLNWVRQAPGQGLEWMGWINTYSGVPTYAGDFKGRFVFSLDTSVSTAYLQISSLKAEDTAVYYCARRGYYGRRFFDVWGKGTTVTVSS VL: DIVLTQSPASLAVSPGQRATITCKASQSVDYDVDSYMHWYQQKPGQPPKLLIYAASNLASGVPARFSGSGSGTDFTLTINPVEANDTANYYCQQTIEDPPTFGGGTKVEIK
1.2 nM	1.4 nM	6.3e-05 s⁻¹	47000 M⁻¹ s⁻¹	h55A1-S6 (antibody, V domains shown, humanized) VH: QVQLVQSGSELKKPGASVKVSCKASGYTFTNYALNWVRQAPGQGLEWMGWINTYSGVGTYAGEFKGRFVFSLDTSVSTAYLQISSLKAEDTAVYYCARRGFYGRRFFDVWGKGTTVTVSS VL: DIVLTQSPASLAVSPGQRATITCKASQSVDYDVDSYMHWYQQKPGQPPKLLIYAASNLASGVPARFSGSGSGTDFTLTINPVEANDTANYYCQQTIEDPPTFGGGTKVEIK

The remaining lines, values behind:

Binder	Neutralizing activity IC50 [1]	Kd [2]	koff [2]	kon [2]
h13B3-S2 (antibody, V domains shown) VH: QVQLVQSGAEVKKPGASVKVSCKASGYTFTEYTMHWVRQAPGQGLEWMGSINPYYGGTSYNEKFKDRVTSTRDTSISTAYMELSRLRSDDTVVYYCARYGNYVGYFDYWGQGTTVTVSS VL: EIVLTQSPGTLSLSPGERATLSCRASSSVHYMYWYQQKPGQAPRLLIYYTSNLAPGIPDRFSGSGSGTDFTLTISRLEPEDFAVYYCQQFTSSPYTFGGGTKVEIK	9 nM	–	–	–
h13B3-S4 (antibody, V domains shown) VH: QVQLVQSGAEVKKPGASVKVSCKASGYTFTEYTMHWVRQAPGQGLEWMGSINPYYGGTSYNEKFKDRVTSTRDTSISTAYMELSRLRSDDTVVYYCARYGNYVGYFDYWGQGTTVTVSS VL: EIVLTQSPATLSLSPGERATLSCRASSSVHYMYWYQQKPGQAPRLLIYYTSNLAPGIPARFSGSGSGTDFTLTISSLEPEDFAVYYCQQFTSSPYTFGGGTKVEIK	2.6 nM	–	–	–
h13B3-S3 (antibody, V domains shown) VH: QVQLVQSGAEVKKPGASVKVSCKASGYTFTEYTMHWVRQAPGQGLEWMGSINPYYGGTSYNEKFKDRVTMTRDTSTSTVYMELSSLRSEDTAVYYCARYGNYVGYFDYWGQGTTVTVSS VL: EIVLTQSPATLSLSPGERATLSCRASSSVHYMYWYQQKPGQAPRLLIYYTSNLAPGIPARFSGSGSGTDFTLTISSLEPEDFAVYYCQQFTSSPYTFGGGTKVEIK	2.1 nM	–	–	–
h16B3-S5 (antibody, V domains shown, humanized) VH: EVQLVESGGGLVQPGGSLRLSCAASGFTFSGYTMSWVRQAPGKGLEWVSEISFARDRAFYPDTVKGRFTISRDNSKNTLYLQMNSLRAEDTAVYYCARLGGKNRDFWYFDLWGQGTTVTVSS VL: DIVMTQSPDSLAVSLGERATINCRASESVEYYGTSLMQWYQQKPGQPPKLLIYAASNVESGVPDRFSGSGSGTDFTLTISSLQAEDVAVYYCQQSWKVPFTFGQGTKLEIK	1.2 nM	1 nM	5.7e-05 s⁻¹	54000 M⁻¹ s⁻¹
h16B3-S1 (antibody, V domains shown) VH: EVQLVESGGGLVQPGGSLRLSCAASGFTFSGYTMSWVRQAPGKGLEWVSEISFARDRAFYPDTVKGRFTISRDNSKNTLYLQMNSLRAEDTAVYYCAKLGGRNHDYWYFDVWGQGTTVTVSS VL: DIVMTQSPDSLAVSLGERATINCRASESVEYYGTSLMQWYQQKPGQPPKLLIYAASNVESGVPDRFSGSGSGTDFTLTISSLQAEDVAVYYCQQSWKVPFTFGQGTKLEIK	2.7 nM	–	–	–
h16B3-S4 (antibody, V domains shown, humanized) VH: EVQLVESGGGLVQPGGSLRLSCAASGFTFSGYTMSWVRQAPGKGLEWVSEISFARDRAFYPDTVKGRFTISRDNSKNTLYLQMNSLRAEDTAVYYCARLGGKNHDFWYFDVWGQGTTVTVSS VL: DIVMTQSPDSLAVSLGERATINCRASESVEYYGTSLMQWYQQKPGQPPKLLIYAASNVESGVPDRFSGSGSGTDFTLTISSLQAEDVAVYYCQQSWRVPFTFGQGTKLEIK	1.7 nM	3 nM	0.00018 s⁻¹	61000 M⁻¹ s⁻¹
h16B3-S6 (antibody, V domains shown, humanized) VH: EVQLVESGGGLVQPGGSLRLSCAASGFTFSGYTMSWVRQAPGKGLEWVSEISFARDRAFYPDTVKGRFTISRDNSKNTLYLQMNSLRAEDTAVYYCARLGGKNRDFWYFDLWGQGTTVTVSS VL: DIVMTQSPDSLAVSLGERATINCRASESVEYYGTSLMQWYQQKPGQPPKLLIYAASNVESGVPDRFSGSGSGTDFTLTISSLQAEDVAVYYCQQSWRVPFTFGQGTKLEIK	1 nM	1 nM	5.8e-05 s⁻¹	60000 M⁻¹ s⁻¹
h16B3-S3 (antibody, V domains shown, humanized) VH: EVQLVESGGGLVQPGGSLRLSCAASGFTFSGYTMSWVRQAPGKGLEWVSEISFARDRAFYPDTVKGRFTISRDNSKNTLYLQMNSLRAEDTAVYYCARLGGKNHDFWYFDVWGQGTTVTVSS VL: DIVMTQSPDSLAVSLGERATINCRASESVEYYGTSLMQWYQQKPGQPPKLLIYAASNVESGVPDRFSGSGSGTDFTLTISSLQAEDVAVYYCQQSWKVPFTFGQGTKLEIK	1.9 nM	4.5 nM	0.00013 s⁻¹	30000 M⁻¹ s⁻¹
h16B3-S8 (antibody, V domains shown, humanized) VH: EVQLVESGGGLVQPGGSLRLSCAASGFTFSAYTMSWVRQAPGKGLEWVSDISFARDRAFYPDTVKGRFTISRDNSKNTLYLQMNSLRAEDTAVYYCARLGGKNRDFWYFDLWGQGTTVTVSS VL: DIVMTQSPDSLAVSLGERATINCRASESVEYYGTSLMQWYQQKPGQPPKLLIYAASNVESGVPDRFSGSGSGTDFTLTISSLQAEDVAVYYCQQSWRVPFTFGQGTKLEIK	1.4 nM	0.78 nM	4e-05 s⁻¹	52000 M⁻¹ s⁻¹
h16B3-S7 (antibody, V domains shown, humanized) VH: EVQLVESGGGLVQPGGSLRLSCAASGFTFSAYTMSWVRQAPGKGLEWVSDISFARDRAFYPDTVKGRFTISRDNSKNTLYLQMNSLRAEDTAVYYCARLGGKNRDFWYFDLWGQGTTVTVSS VL: DIVMTQSPDSLAVSLGERATINCRASESVEYYGTSLMQWYQQKPGQPPKLLIYAASNVESGVPDRFSGSGSGTDFTLTISSLQAEDVAVYYCQQSWKVPFTFGQGTKLEIK	1.4 nM	1.2 nM	5.9e-05 s⁻¹	50000 M⁻¹ s⁻¹
h55A1-S4 (antibody, V domains shown, humanized) VH: QVQLVQSGSELKKPGASVKVSCKASGYTFTNYAMNWVRQAPGQGLEWMGWINTYSGVGTYAGDFKGRFVFSLDTSVSTAYLQISSLKAEDTAVYYCARRGFYGRRFFDVWGKGTTVTVSS VL: DIVLTQSPASLAVSPGQRATITCKASQSVDYDVDSYMHWYQQKPGQPPKLLIYAASNLASGVPARFSGSGSGTDFTLTINPVEANDTANYYCQQTIEDPPTFGGGTKVEIK	1.1 nM	3 nM	0.00024 s⁻¹	80000 M⁻¹ s⁻¹

Source: patent publication US20200071424A1 (SHIONOGI, published 2020)
